Experimental data reported in patent publication US6841359 (GENERAL HOSPITAL, dated 2005).
Where no end group is shown, it is not given here. The star is where a group is joined. puromycin = COc1ccc(C[C@H](N*)C(=O)N[C@H]2[C@@H](O)[C@H](n3cnc4c(N(C)C)ncnc43)O[C@@H]2CO)cc1; DNA oligonucleotide = not defined here

B1: SB2 (peptide)
peptide: MDEKTHCFHPGDHLVRLVEELQALAEGLQRQGGRQPHRLPRRRPHHLQLLLDEAHPQAGPLRERAHQVDGRLLLQHHPQGDRLLQQPQDHPLELVWRLPPS
modifications: C-terminus joined through puromycin to a short DNA oligonucleotide (DNA-tagged peptide); 35S-methionine label
notes: also called peptide SB2; clone SB2
B2: Non-selected peptide with two HPQ motifs spaced by 19 residues (peptide)
peptide: MDEAHPQAGPVDQADARLVQQGALQHHPQGDRMMSGGCKLGTGY-{puromycin-DNA oligonucleotide}
modifications: reading uncertain; also: C-terminus joined through puromycin to a short DNA oligonucleotide (DNA-tagged peptide), 35S-methionine label
notes: also called non-selected clone; control peptide
B3: SB5 (peptide)
peptide: MDEKTHWVNVYHPQGDLLVRGHGHDVEALHDQGLHQLDLLVGPPPEVVRALRGEVLGGLRRLVPLDHPQGEALDQARQRPQHLLELHHRALPPALVWRLPPS
modifications: C-terminus joined through puromycin to a short DNA oligonucleotide (DNA-tagged peptide); 35S-methionine label
notes: also called peptide SB5
B4: SB4 (peptide)
peptide: MDEKTHWGISTWRGEPLLHHPQAGRLPLDRRRARHRRILGAEPGGVDHGLRLELLDDHRPLVPDHHPQRGPLQRGDLPQVVPLVRLRHAHVLGLGLAAATIT
modifications: C-terminus joined through puromycin to a short DNA oligonucleotide (DNA-tagged peptide); 35S-methionine label
notes: also called peptide SB4
B5: SB3 (peptide)
peptide: MTRRPTASSSSCVRHLLLRQGEHGHQALEDRDKARHVRLVEGDVEVLGGLDRLARARHEALHPQAGLVHLPLHGGDLGGHLRLVLEAHPQGDRLGLAVHHH
modifications: C-terminus joined through puromycin to a short DNA oligonucleotide (DNA-tagged peptide); 35S-methionine label
notes: also called peptide SB3
B6: N1 (peptide)
peptide: MDGHVVEGLAGELEQLRARLEHHPQGQREPMMSGGCKLG
notes: One member of the group m27; Assayed as a DNA-tagged peptide
B7: N2 (peptide)
peptide: MDEGLAGELEQLRARLEHHPQGQREPLVQEVEDVDEGLVQDLHGVVAGLLDPVEKLLTDWFKKFKNVSKDCKMTFYLEMYDWSGGCKLG
notes: as for B6
B8: SB6 (peptide)
peptide: MDEKTHWLNNFEELLARLDGLREGEDHPLVLRHHPQGDGLLDQPLGRHRALDGEVREGDRPLDQGGEEDLGALVDDDGEVLDGLVHVGVHVHDPLVCGCHHH
modifications: C-terminus joined through puromycin to a short DNA oligonucleotide (DNA-tagged peptide); 35S-methionine label
notes: also called peptide SB6
B9: SB19 C-terminal truncation construct C3 (peptide)
peptide: MDEKTTGWRGGHVVEGLAGELEQLRARLEHHPQGQREPLVQEVEDVDEGLVQMMSGGCKLG-{puromycin-DNA oligonucleotide}
modifications: reading uncertain; also: 35S-methionine label
B10: SB19 C-terminal truncation construct C2 (peptide)
peptide: MDEKTTGWRGGHVVEGLAGELEQLRARLEHHPQGQREPLVQEVEDVDEGLVQDLHGVVAGLLDPVEMMSGGCKLG
modifications: C-terminus joined through puromycin to a short DNA oligonucleotide (DNA-tagged peptide); 35S-methionine label
B11: SB8 (peptide)
peptide: MDEKTHCTIELNFSFTHWKLHHHPQGDALLDDGVRPHHPLADEGGGLDQGLGHRRGVVAERLARRDPEVLEGLVERHRGLVPRLRHGGERHAEPLVWRLPPS
modifications: C-terminus joined through puromycin to a short DNA oligonucleotide (DNA-tagged peptide); 35S-methionine label
notes: also called peptide SB8
B12: SB1 (peptide)
peptide: MDEKTHCTISMNGAVPLVPHHHPQGDPLRLLHRPQPALLVRHPQGDLVALVEHHEGVDRGLVALPELHAEELGEPVGDLVQGPVEQVQGVVDALVWRLPPS
modifications: C-terminus joined through puromycin to a short DNA oligonucleotide (DNA-tagged peptide); 35S-methionine label
notes: also called peptide SB1; clone SB1
B13: SB7 (peptide)
peptide: MDEKTHWFGTLNSFPTHWMSAVGNGKIDCSFNMNLSLNHWLSSGHPDGALDDQLHPQGDALVGRDDGVVQALRLEGQHQHRRLAQRRADRHRQLVWRLPPS
modifications: C-terminus joined through puromycin to a short DNA oligonucleotide (DNA-tagged peptide); 35S-methionine label
notes: also called peptide SB7
B14: SB19 C-terminal truncation construct C1 (peptide)
peptide: MDEKTTGWRGGHVVEGLAGELEQLRARLEHHPQGQREPLVQEVEDVDEGLVQDLHGVVAGLLDPVEKLLTDWFKKFKNVSMMSGGCKLG
modifications: C-terminus joined through puromycin to a short DNA oligonucleotide (DNA-tagged peptide); 35S-methionine label

What was measured:
[1] = target: T1, streptavidin (UniProt P22629 37-163, limits assumed); test: streptavidin column-binding assay, 35S DNA-tagged peptide on immobilized streptavidin, biotin elution
T1 construct: The same protein was used free (EMSA, Biacore, SBIA) and immobilized on a matrix or plate; also called immobilized streptavidin; Ultralink immobilized streptavidin plus
Description: (§1) The resulting purified DNA-tagged peptides (DTP) were analyzed in a streptavidin column-binding assay, in which ~500 pM ^35S-labeled DTP were mixed with 50 µL of the streptavidin matrix in streptavidin-binding buffer, in a total volume of 300 µL, and incubated for 10 minutes at room temperature with agitation. Then, the contents were loaded onto a chromatography column. The column was drained and washed with 80 column volumes of streptavidin-binding buffer, and then eluted with three consecutive aliquots (3 column volumes each) of streptavidin-binding buffer plus 2 mM biotin over a 15 minute period. All fractions (flow-through, washes, elutions, and irreversibly bound counts) were analyzed by scintillation counting to determine the fraction of DTP that bound streptavidin and eluted with biotin (Table 1).

[2] = target: T1, streptavidin; test: EMSA, DNA-tagged peptide with free streptavidin; SD 0.91, n=8
Description: (§2) The dissociation constants of the selected peptides for streptavidin were measuring using an electrophoretic mobility shift assay (EMSA). In this assay, DTP's were incubated with varying amounts of pure streptavidin (Pierce Immunopure Streptavidin, Rockford, Ill.) in streptavidin-binding buffer plus 5% glycerol to increase the density of the solution so that it could collect at the bottom of the gel well. After incubating at room temperature for 20 minutes, the reactions mixtures were moved into the cold room, where they remained for 10 minutes before being carefully loaded onto a 10% polyacrylamide:bisacrylamide (37.5:1, National Diagnostics, Atlanta, Ga.) gel (thickness 0.7 mm, height 16 cm, width 18 cm) containing 2×TBE, 0.1% Triton X-100 and 5% glycerol. The gel, which had been pre-run for 30 minutes at 13 watts, and the running buffer were pre-cooled to 4° C. Then, the gel was run in the cold room at 13 watts, which increased the temperature of the gel to about 20° C. The gel was run for 45 to 120 minutes, depending on the mobility of the particular DTP. Then, the gel was fixed in 10% acetic acid and 10% methanol for 15 minutes, transferred to electrophoresis paper (Ahlstrom, Mt. Holly Springs, Pa.), dried, and analyzed using a PhosphorImager (Molecular Dynamics, Sunnyvale, Calif.).

[3] = target: T1, streptavidin; test: EMSA, DNA-tagged peptide with free streptavidin; SD 22, n=6
Description: as §2

[4] = target: T1, streptavidin; test: streptavidin column-binding assay: 35S-labeled DNA-tagged peptide bound to immobilized streptavidin and eluted with biotin
Description: as §1

[5] = target: T1, streptavidin; test: EMSA, DNA-tagged peptide with free streptavidin; SD 5.7, n=4
Description: as §2

[6] = target: T1, streptavidin; test: streptavidin column-binding assay, M1 (HPQ to HGA) compared to C4
Description: as §1

T1 sequence (P22629 37-163 limits assumed): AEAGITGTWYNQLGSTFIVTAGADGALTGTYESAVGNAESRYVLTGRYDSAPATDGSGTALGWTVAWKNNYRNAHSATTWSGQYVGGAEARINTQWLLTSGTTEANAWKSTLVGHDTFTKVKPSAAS

Binder	% binding and eluting [1] [%]	% binding [4] [%]	further results
B1	48	–	Kd [2]: 4.8 nM
B2	0.16	–	–
B3	72	–	Kd [3]: 110 nM
B4	49	–	–
B5	20	–	–
B6	–	69	–
B7	–	30	–
B8	49	–	–
B9	–	89	–
B10	–	88	–
B11	27	–	–
B12	86	–	Kd [5]: 50 nM
B13	28	–	–
B14	–	87	–
MDEKTTGWRGGHVVEGLAGELEQLRARLEHHGAGQREPMMSGGCKLG-{puromycin-DNA oligonucleotide} (reading uncertain; also: 35S-methionine label, also called construct M1) [SB19 point mutated peptide M1]	–	0.065	fold reduction of activity against construct C4 [6]: ~1000 fold
